Changes are numbered by the printed parent chain.
B1: I026E03 (scFv)
scFv: EVQLVQSGGEVKRPGASVKVSCKASGYTFSRYGISWVRQAPGQGLEWMGWISAYNGKTSFAEKFQGRVTLTTDTSTTTVDMELRNLRSDDTAVYYCARTDYDILTGYPMGYFDPWGKGTLVTVSSGGGGSGGGGSGGGGSALSSELTQDPAVSVALGQTVKITCQGDSLRSFYAAWYQQKPGQAPILVISGKNNRPSGIPDRFSGSSSGNTASLTITGAQAEDEADYYCNSRDTSGNHYVFGAGTKLTVLG
B2: I016F04 (scFv)
scFv: QVQLQQSGSELKKPGASVKVSCKVSGYSLTKMSMHWVRQSPGEGLEWVGGIDPETRQPVYAQKFQGRVTITKDTSASAAYMELSSLGSEDTALYYCARATYDPLTGYSFDGFDIWGQGTLVTVSSGGGGSGGGGSGGGGSQSVLTQPASVSGSPGQSITISCTGTSSDVGGYNYVSWYQQHPGKAPKLMIYEGSKRPSGVSNRFSGSKSGNTASLTISGLQAEDEADYYCSSYTTRSTRVFGGGTKLTVLG
B3: I016E05 (scFv)
scFv: QVQLQQSGAEVKKPGASVKVSCKASGYTFTKYTMHWVRQAPGQGPEWMGWINGGSGDTKYSRKFQGRVTITKDTSASAAYMELSSLGSEDTALYYCARATYDPLTGYSFDGFDIWGKGTMVTVSSGGGGSGGGGSGGGGSQSALTQPASVSGSPGQSITISCTGTSSDVGGYNYVSWYQQHPGKAPKLMIYEGSKRPSGVSNRFSGSKSGNTASLTISGLQAEDEADYYCSSYTTRSTRVFGGGTKLTVLG
B4: I018H09 (scFv)
scFv: B3 scFv with A79T, A143V
B5: I018H08 (scFv)
scFv: B3 scFv with K19N, K117Q, A143V, V249I
notes: also called 1018H08
B6: I017D10 (scFv)
scFv: RVQLVQSGAEVKKPGASVKVSCKASGYTFTSDHISWVRQAPGQGLEWMGWISPHHGKTNYAQKLQGRVTMTTDTSTSTAYMELRSLRSDDTAVYYCARVQMDSEYYDLLTGINVGPYYFDYWGKGTLVTVSSGGGGSGGGGSGGGGSSELTQDPAVSVALGQTVRITCQGDSLRSYYASWYQQKPGQAPVLVIYGKNNRPSGIPDRFSGSSSGNTASLTITGAQAEDEADYYCNSRDSSGNHVVFGGGTKLTVLG
B7: I021B05 (scFv)
scFv: QVQQSGADVKKPGGSLRLSCAASGFTFSSYSMNWVRQAPGKGLEWVSSISSSSSYIYYADSVKGRFTISRDNAKNSLYLQMNSLRAEDTAVYYCAREGGNYDILTGYYIGNGAFDIWGRGTMVTVSSGGGGSGGGGSGGGGSQSVLTQPASVSGSPGQSITISCTGTSSDVGGYNYVSWYQQHPGKAPKLMIYEGSKRPSGVSNRFSGSKSGNTASLTISGLQAEDEADYYCSSYTTRSTRVFGGGTKLTVLG
B8: I006D07 (scFv)
scFv: EVQLVESGGGVVQPGGSLRLSCAASGFTVNSYAMHWVRQAPGKGLQWVAVIPYDGSKKYYADSVKGRFTVSRDNSKNTLYLQMNSLRAEDTAVYYCARSHYDILTGLNYWYFDLWGRGTLVTVSSGGGGSGGGGSGGGGSSELTQDPAVSVALGQTVRITCQGDSLRSYYASWYQQKPGQAPVLVIYGKNNRPSGIPDRFSGSSSGNTASLTITGAQAEDEADYYCNSRGSSGNHVVFGGGTKLTVLG
B9: I008B01 (scFv)
scFv: QVQLVQSGAEVMKPGASVKVSCKASGYNFNNYAMQWVRQAPGQRLEWMGWIVPGNGKTKYSQKFQDRVTIARDTSASTVYMELSSLTSEDTAMYYCARATYDPLTGYSFDGFDIWGQGTTVTVSSGGGGSGGGGSGGGGSQSVLTQPASVSGSPGQSITISCTGTSSDVGGYNYVSWYQQHPGKAPKLMIYEGSKRPSGVSNRFSGSKSGNTASLTISGLQAEDEADYYCSSYTTRSTRVFGGGTKLTVLG
B10: I031F02 (scFv)
scFv: QVQLVQSGAEVRKPGSSVKVSCKASGGSFSSHVFSWVRQAPGQGLEWVGGITPKFATPNYAQKFQHRVTITADELTRTVFMDLSGLRSEDTAVYYCARGYDSSAFRAFDIWGQGTMVTVSSGGGGSGGGGSGGGGSAQSVLTQPPSVSGAPGQRVTISCTGSSSNIGAGYDVQWYQQLPGTAPKLLIHGNNNRPSGVPDRFSGSKSGTSASLAITGLQDEDEADYYCQSYDSSLSFSGYVFGTGTKVTVLG
B11: I007B03 (scFv)
scFv: GVQLQQSGAEVKKPGSSVKVSCKASGGTFNTSGITWVRQAPGQGLEWMGWMNPNTGDTAYAQEFQGRVIMTRDTSISTAYMELSSLRSEDTAVYYCARDGSYDILTGYYIDNYMDVWGQGTMVTVSSGGGGSGGGGSGGGGSQSVLTQPASVSGSPGQSITISCTGTSSDVGGYNYVSWYQQHPGKAPKLMIYEGSKRPSGVSNRFSGSKSGNTASLTISGLQAEDEADYYCSSYTTRSTRVFGGGTKLTVLG
B12: I031F09 (scFv)
scFv: QVQLVQSGAEVKKPGASVKVSCTVSGDSFSRHGISWVRQAPGQGLEWMGWISVYNGDTKYAQKVQGRVTMTTDTSTNTVYMELRRLRSDDTAVYYCARDEGRDLLTGYYWPNFFDSWGRGTLVTVSSGGGGSGGGGSGGGGSALSYVLTQPPSASGTPGQRVTISCSGSRPNIGGNTVNWYQQLPGAAPKLLIYSNSQRPSGVPDRFSGSKYGTSASLAISGLQSDDEADYYCAAWDDSLTGPVFGGGTKLTVLG
B13: I031G11 (scFv)
scFv: B12 scFv with A154V, R161K
B14: I006D08 (scFv)
scFv: QVQLQQSGAEVKKPGSSVRVSCKASGGTFNNNAINWVRQAPGQGLEWMGGIIPMFGTAKYSQNFQGRVAITADESTSTASMELSSLRSEDTAVYYCARSRDLLLFPHYGMDVWGRGTMVTVSSGGGGSGGGGSGGGGSAFSSELTQDPAVSVALGQTVRVTCQGDSLRSYYASWYQQKPGQAPVLVIYGKNNRPSGIPDRFSGSSSGNTASLTITGAQAEDEADYYCNSRDSSGNHWVFGGGTELTVLG
B15: I016H07 (scFv)
scFv: GVQLVQSGAEVKKPGASVKVSCKASGYTFTHYAINWLRQAPGQRPEWMGTINTGNGNTKYSQNFQGRLTITRDTSASTVNMELSSLRSEDTAVYYCAGGYHDPLTSYNYNWFDPWGQGTMVTVSSGGGGSGGGGSGGGGSSELTQDPAVSVALGQTVRITCQGDSLRSYYTNWFQQKPGQAPLLVVYAKNKRPSGIPDRFSGSSSGNTASLTITGAQAEDEADYYCHSRDSSGNHVLFGGGTKLTVLG
B16: I037E07 (scFv)
scFv: QVQLVQSGAEVKKPGASVKVSCKASGYTFTNYGITWVRQAPGQGLEWMGWISAYNGNRNYAQKLQGRVTMTTDTSTSTAYMELRSLRSDDTAVYYCVRDGIDILLVPAALMDVWGRGTMVTVSSGGGGSGGGGSGGGGSQSVLTQPASVSGSPGQSITISCTGTSSDVGGYNYVSWYQQHPGKAPKLMIYEGSKRPSGVSNRFSGSKSGNTASLTISGLQAEDEADYYCSSYTTRSTRVFGGGTKLTVLG
B17: I037E12 (scFv)
scFv: B16 scFv with Q1E, R116K, M119L, S193N
B18: I008A09 (scFv)
scFv: GVQLVQSGGGVVQPGGSLRLSCAASGFTFSSYGMHWVRQAPGKGLEWVAVISYDGSNKYYADSVKGRFTISRDNSKNTLYLQMNSLRAEDTAVYYCARDREAYYDILTGYYLYYYYMDVWGRGTTVTVSSGGGGSGGGGSGGGGSQSVLTQPASVSGSPGQSITISCTGTSSDVGGYNYVSWYQQHPGKAPKLMIYEGSKRPSGVSNRFSGSKSGNTASLTISGLQAEDEADYYCSSYTTGSTRVFGGGTKLTVLG
B19: I001C09 (scFv)
scFv: GVQLVQSGPEVKKPGASVKVSCTASGYTFTSYGVSWVRQAPGQGLEWIGWISAHNGQTKYAEKFQGRVTMTRNTSISTAYMELSSLRSEDTAVYYCARDGSYDILTGYYIDNYMDVWGKGTMVTVSSGGGGSGGGGSGGGGSSELTQDPAVSVALGQTVRITCQGDSLRSYYTNWFQQKPGQAPLLVVYAKNKRPSGIPDRFSGSSSGNTASLTITGAQAEDEADYYCHSRDSSGNHVLFGGGTKLTVLG
B20: I018D07 (scFv)
scFv: B19 scFv with K19I
B21: I018C10 (scFv)
scFv: B19 scFv with A92V
B22: I050A12 (scFv)
scFv: EVQLVQSGAEVKKPGSSVKVSCKASGDTFSHYAINWVRQAPGQGLEWMGGIIPTFNAVKYAQKFQGRATITADGSTSTAYMELNSLRSEDTAVYYCATAPYDLLTHYFHYFDYWGQGTMVTVSSGGGGSGGGGSGGGGSALSSELTQDPAVSVTLGQTVRITCQGDSLRSYYPSWYQQKPGQAPVLVIYPKNIRPSGIPDRFSGSSSGNTASLTITGAQAEDEADYYCNSRASSGNHYVFATGTKLTVLG

What follows are binders tested against T1, biotinylated B Lymphocyte Stimulator, soluble form (human, UniProt Q9Y275 134-285, biotinylated with NHS-biotin, molar ratio 20:1 biotin:protein) (assay: phage scFv, receptor binding inhibition on IM9 cells).
T1 construct: also called bio-B Lymphocyte Stimulator; free B Lymphocyte Stimulator
Experimental: Fifty-five μl of each appropriate phage supernatant was added to each well and the final volume in each well was 65 μl. Plates were then incubated at room temperature for 30 minutes.
Plates were washed three times in PBST and three times in PBS, tapped dry and 50 μl of streptavidin-Delfia (Wallac) was added to each well at 1:1000 dilution in the Manufacturer's assay buffer. The plates were then incubated at room temperature for 1 hour and washed six times in Delfia wash solution (Wallac). After tapping the plates dry, 100 μl per well of Delfia enhancement solution (Wallac) was added. The plates were gently tapped to encourage micelle formation, incubated at room temperature for 10 minutes, and fluorescence read on a Wallac 1420 workstation at […].

Binding result, binds:
B1
B2
B3
B4
B5
B6
B7
B8
B9
B10
B11
B12
B13
B14
B15
B16
B17
B18
B19
B20
B21
B22

Reference: US20110293610A1 (published 2011)
